Molecular target: GST-HAb18GE (a fusion of the extracellular domain of hepatoma-associated antigen HAb18G with GST) (human) (UniProt P35613)
Assay: indirect ELISA on coated GST-HAb18GE; positive control; mean ± S

UniProt P35613, sequence (P35613 138-325): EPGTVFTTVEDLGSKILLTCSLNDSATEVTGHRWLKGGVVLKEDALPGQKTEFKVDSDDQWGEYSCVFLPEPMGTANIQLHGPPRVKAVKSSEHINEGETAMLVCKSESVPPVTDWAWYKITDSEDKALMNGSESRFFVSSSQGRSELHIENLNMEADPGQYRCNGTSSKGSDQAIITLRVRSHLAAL

A450 (Indirect ELISA): 1.02 A450
B1: murine anti-human hepatoma McAb HAb18 (antibody, mouse IgG1, V domains shown)
VH: EVKLEESGGGLVQPGGSMKLSCVASGFTFSDAWMDWVRQSPEKGLEWVAEIRSKANNHAPYYTESVKGRFTISRDDSKSIIYLQMNNLRAEDTGIYYCTRDSTATHWGQGTLVTVSS
VL: SIVMTQTPTFLVVSAGDRVTITCKASQSVINDVAWYQQKPGQSPKLLIFYASNRNTGVPDRFTGSGYGTDFTFTISTVQAEDLAVYFCQQDYSPPFTFGSGTKLEIK
modifications: HRP-labelled in the competitive ELISAs

Source: patent publication US20050176933A1
